Assay results reported in the supplement of paper PMC7125110.
± gives the standard error. For some assays here: Variants at the floor of the assay were thinned out.

B1: glmS ribozyme (parent)
chain: AUAAAAGCGCCAGAACUACAGAAAUGUAGUUGACGAGGAGGAGGUUUAUCGAAUUUUCGGCGGAUGCCUCCAAA

Legend:
Conditions in all cases: with glucosamine-6-phosphate
glucosamine-6-phosphate [1] = variants of: B1; assay: kcat; higher = faster cleavage; RNA array
How it was run: (§1)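 Weighted Michaelis–Menten fits across concentrations supplied kcat and KM, based on kobs from one- or two-exponential decay fits to normalised per-tile medians. The data came from barcoded ribozyme variants transcribed in situ by E. coli RNA polymerase on sequenced MiSeq chips and tracked at 37 °C by a hybridised Cy3 probe. Glucosamine-6-phosphate (40 μM to 10 mM) in HEPES/KCl/Mg(OAc)2 buffer was flowed in.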

glucosamine-6-phosphate [2] = variants of: B1; assay: KM; higher = weaker cofactor use; RNA array
How it was run: as §1

glucosamine-6-phosphate [3] = variants of: B1; assay: self-cleavage kobs at 160 uM GlcN6P; higher = faster cleavage; RNA array
How it was run: as §1

glucosamine-6-phosphate [4] = variants of: B1; assay: self-cleavage kobs at 640 uM GlcN6P; higher = faster cleavage; RNA array
How it was run: as §1

glucosamine-6-phosphate [5] = variants of: B1; assay: self-cleavage kobs at 2500 uM GlcN6P; higher = faster cleavage; RNA array
How it was run: as §1

glucosamine-6-phosphate [6] = variants of: B1; assay: self-cleavage kobs at 10000 uM GlcN6P; higher = faster cleavage; RNA array
How it was run: as §1

glucosamine-6-phosphate [7] = variants of: B1; assay: self-cleavage kobs at 40 uM GlcN6P; higher = faster cleavage; RNA array
How it was run: as §1

Variant	kcat (glucosamine-6-phosphate [1]) [s⁻¹]	KM (glucosamine-6-phosphate [2]) [mM]	self-cleavage kobs at 160 uM GlcN6P (glucosamine-6-phosphate [3]) [s⁻¹]	self-cleavage kobs at 640 uM GlcN6P (glucosamine-6-phosphate [4]) [s⁻¹]	self-cleavage kobs at 2500 uM GlcN6P (glucosamine-6-phosphate [5]) [s⁻¹]	self-cleavage kobs at 10000 uM GlcN6P (glucosamine-6-phosphate [6]) [s⁻¹]	self-cleavage kobs at 40 uM GlcN6P (glucosamine-6-phosphate [7]) [s⁻¹]
C34U C68A	1.2e-05 ± 1.8e-06						
G37A G40A	0.000755 ± 0.00012	2.83 ± 0.82	3.73e-05 ± 1.3e-05	0.000135 ± 3.7e-05	0.000366 ± 7.6e-05	0.000583 ± 9.3e-05	
U31C G59U	< 1e-05			< 1e-05			< 1e-05
A33G C68G	3.02e-05 ± 6e-06		3.17e-05 ± 1.3e-05	3.59e-05 ± 1.5e-05			
G32C U45G	2.74e-05 ± 2.5e-06	2.96 ± 1	< 1e-05				< 1e-05
A33C A48U	< 1e-05		< 1e-05				< 1e-05
C34A G51U C67U	0.000275 ± 1.8e-05	2.73 ± 0.39		4.9e-05 ± 2e-05	0.00014 ± 3.7e-05	0.000213 ± 4.5e-05	
A33C U54A	0.00129 ± 0.00021	7.81 ± 1.7	4.1e-05 ± 1.7e-05	9.44e-05 ± 1.2e-05	0.000323 ± 6.1e-05	0.000722 ± 0.0001	
U31G A64C	2.01e-05 ± 3.9e-06						
A36U A64C	< 1e-05		< 1e-05		< 1e-05	< 1e-05	< 1e-05
A33C U47A	0.000256 ± 2.1e-05	2.95 ± 0.55		4.21e-05 ± 1.7e-05	0.000136 ± 4.7e-05	0.000195 ± 3.4e-05	
A33C U47C	4.24e-05 ± 1.3e-05				5.42e-05 ± 1.3e-05	3.37e-05 ± 1e-05	
G32A A42G A64G	0.00178 ± 0.00063			0.000716 ± 0.00024		0.0016 ± 0.00039	3.12e-05 ± 1.5e-05
C34G G37U	< 1e-05			< 1e-05		< 1e-05	
G32U A42G	0.00137 ± 0.00021	3.79 ± 0.81	4.61e-05 ± 1.7e-05	0.000218 ± 4e-05	0.000528 ± 0.00013	0.000988 ± 0.00023	
G37A C68U	6.89e-05 ± 7.5e-06	2.69 ± 0.82		1.94e-05 ± 7.7e-06	3.08e-05 ± 5.5e-06	5.51e-05 ± 6e-06	
A33C A39U	0.000401 ± 2.3e-05	4 ± 0.47		5.65e-05 ± 7.9e-06	0.000146 ± 1.9e-05	0.000289 ± 1.9e-05	
A33C A39C	3.87e-05 ± 3.3e-06				3.92e-05 ± 8e-06	3.54e-05 ± 7.3e-06	
A33C G40A	2.31e-05 ± 2.6e-06	4.07 ± 1.4					
U31C G66U	0.000326 ± 6.8e-05	4.61 ± 1.7			0.000124 ± 1.6e-05	0.000214 ± 3.5e-05	

Variant	kcat (glucosamine-6-phosphate [1]) [s⁻¹]	KM (glucosamine-6-phosphate [2]) [mM]	self-cleavage kobs at 160 uM GlcN6P (glucosamine-6-phosphate [3]) [s⁻¹]	self-cleavage kobs at 640 uM GlcN6P (glucosamine-6-phosphate [4]) [s⁻¹]	self-cleavage kobs at 2500 uM GlcN6P (glucosamine-6-phosphate [5]) [s⁻¹]	self-cleavage kobs at 10000 uM GlcN6P (glucosamine-6-phosphate [6]) [s⁻¹]	self-cleavage kobs at 40 uM GlcN6P (glucosamine-6-phosphate [7]) [s⁻¹]
A33G U57G	1.21e-05 ± 4.2e-06					< 1e-05	
A33C A36C G43A A52U	< 1e-05						
U31G A33U C70U	9.54e-05 ± 1.9e-05					7.8e-05 ± 2e-05	
G32U A33C	< 1e-05		< 1e-05	< 1e-05			
A36C C50G G51A	< 1e-05		< 1e-05				
A33C U69A	< 1e-05		< 1e-05	< 1e-05			
A36C U69C	1.31e-05 ± 3.1e-06				< 1e-05		
U31G A39U	0.0136 ± 0.0028	3.52 ± 0.93	0.000492 ± 7.3e-05	0.00183 ± 0.00041	0.00485 ± 0.00084	0.0106 ± 0.0011	0.000179 ± 1.6e-05
U31G G35U C67G	< 1e-05						
A36C U54A	< 1e-05		< 1e-05				
A36C U54G	< 1e-05				< 1e-05	< 1e-05	
A33U U54A C68A	2.8e-05 ± 3.4e-06						
G32U U69C	0.00053 ± 3.6e-05	3.47 ± 0.47		7.6e-05 ± 2.3e-05	0.000232 ± 4.8e-05	0.000391 ± 5.4e-05	
U31C U45A	0.0175 ± 0.0045	3.89 ± 1.2	0.000613 ± 0.00012	0.00258 ± 0.00062	0.00783 ± 0.0016	0.0108 ± 0.004	0.000212 ± 6e-05
A33G G60C	< 1e-05		< 1e-05	< 1e-05			
G32U C70G	7.04e-05 ± 1e-05			8.68e-05 ± 1.2e-05	5.3e-05 ± 5.7e-06	7.56e-05 ± 4.5e-06	
G32A U54C	0.00356 ± 0.0013			0.000309 ± 6.5e-05	0.00147 ± 0.00026	0.0022 ± 0.00036	3.45e-05 ± 1.1e-05
C34A G51U	0.000727 ± 0.00012	3.28 ± 1.2		0.000141 ± 3e-05	0.000354 ± 6.1e-05	0.000537 ± 4.9e-05	
A33U C70U	0.000127 ± 1.1e-05	2.76 ± 0.73		3.24e-05 ± 9.8e-06	5.5e-05 ± 8.7e-06	0.0001 ± 6.7e-06	
